The experiment addresses PrPBPs (prion protein binding proteins) on the surface of G8 cells (mouse muscle cell line). In words: Scatchard analysis, bound AP activity on G8 cells.

The substance “PrP-AP fusion protein (murine PrP fused to secreted human placental heat-stable alkaline phosphatase) (from UniProt P04925 23-229; P05187 23-511)” yielded a dissociation constant (Kd) of 1.48 nM and a PrP-AP binding sites (Bmax) (binding sites) of 100000.

Broadly, the Kd is the free concentration of one partner at which half of the binding sites on the other are occupied at equilibrium, for simple one-to-one binding. Low values mean a tighter complex, high ones a looser complex.

Source of the values: patent EP0920630B1.
